Literature values as cited in article PMC4696766.
Like-named read-outs stand apart in the source and are kept apart here. Each block holds one substance with its values, some of them ahead of it.

Legend:
[1] = molecular target: Histone H3 (Homo sapiens) (UniProt P68431)
[2] = molecular target: Histone H3 (Homo sapiens) (UniProt P68431); remark: listed apart in the source
[3] = molecular target: histone H3 H3K9me3 peptide (UniProt P61830)
[4] = molecular target: Histone H3 (Drosophila melanogaster) (UniProt P02299)
[5] = molecular target: histone H4 H4K20me2 peptide (UniProt P62805)
di-γH2A.X (Homo sapiens) = di-γH2A.X (Homo sapiens) (UniProt P16104)
γH2A.X (Homo sapiens) = γH2A.X (Homo sapiens) (UniProt P16104)
[6] = molecular target: histone H3 H3K9me3 peptide (UniProt P61830); remark: listed apart in the source
histone H3 1-10 = histone H3 1-10 (UniProt P61830)
[7] = molecular target: Histone H3 (Homo sapiens) (UniProt P68431); remark: listed apart in the source
PIWI (Homo sapiens) = PIWI (Homo sapiens) (UniProt Q96J94)
[8] = molecular target: histone H3 H3K9me2 peptide (UniProt P61830)
[9] = molecular target: Histone H3 (Arabidopsis thaliana) (UniProt P59226)
[10] = molecular target: Histone H4 (Homo sapiens) (UniProt P62805)
[11] = molecular target: histone H3 H3K4me3 peptide (UniProt P61830)
[12] = molecular target: histone H3 H3K4me2 peptide (UniProt P61830)
[13] = molecular target: histone H3 H3K4me3 peptide (UniProt P61830); remark: listed apart in the source
[14] = molecular target: Histone H3 (Homo sapiens) (UniProt P68431); remark: listed apart in the source
[15] = molecular target: histone H3 H3K9me2 peptide (UniProt P61830); remark: listed apart in the source
[16] = molecular target: Histone H3 (Homo sapiens) (UniProt P68431); remark: listed apart in the source
[17] = molecular target: Histone H3 (Homo sapiens) (UniProt P68431); remark: listed apart in the source
[18] = molecular target: Histone H3 (Homo sapiens) (UniProt P68431); remark: listed apart in the source
[19] = molecular target: Histone H3 (Homo sapiens) (UniProt P68431); remark: listed apart in the source
[20] = molecular target: Histone H3 (Homo sapiens) (UniProt P68431); remark: listed apart in the source
[21] = molecular target: Histone H4 (Homo sapiens) (UniProt P62805); assay: NMR
[22] = molecular target: histone H3 H3K4me3 peptide (UniProt P61830); remark: listed apart in the source
[23] = molecular target: histone H4 H4K20me3 peptide (UniProt P62805)
[24] = molecular target: Histone H3 (Arabidopsis thaliana) (UniProt P59226); remark: listed apart in the source

HP1 chromodomain, sequence (P05205 24-82): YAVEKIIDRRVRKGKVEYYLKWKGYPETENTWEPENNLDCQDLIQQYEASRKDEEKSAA
JMJD2A tandem Tudor, sequence (O75164 897-1011): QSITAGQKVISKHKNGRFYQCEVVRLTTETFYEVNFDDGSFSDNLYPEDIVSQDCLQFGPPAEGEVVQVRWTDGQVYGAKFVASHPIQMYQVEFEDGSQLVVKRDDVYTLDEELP
14-3-3ζ, sequence (P63104 whole entry): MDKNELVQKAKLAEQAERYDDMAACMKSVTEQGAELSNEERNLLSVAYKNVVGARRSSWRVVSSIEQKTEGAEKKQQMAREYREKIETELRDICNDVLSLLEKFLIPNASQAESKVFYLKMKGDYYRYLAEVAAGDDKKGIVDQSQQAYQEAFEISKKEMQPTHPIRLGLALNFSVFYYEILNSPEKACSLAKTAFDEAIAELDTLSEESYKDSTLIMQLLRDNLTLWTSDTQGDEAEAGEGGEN
BHC80 PHD finger, sequence (Q96BD5 whole entry): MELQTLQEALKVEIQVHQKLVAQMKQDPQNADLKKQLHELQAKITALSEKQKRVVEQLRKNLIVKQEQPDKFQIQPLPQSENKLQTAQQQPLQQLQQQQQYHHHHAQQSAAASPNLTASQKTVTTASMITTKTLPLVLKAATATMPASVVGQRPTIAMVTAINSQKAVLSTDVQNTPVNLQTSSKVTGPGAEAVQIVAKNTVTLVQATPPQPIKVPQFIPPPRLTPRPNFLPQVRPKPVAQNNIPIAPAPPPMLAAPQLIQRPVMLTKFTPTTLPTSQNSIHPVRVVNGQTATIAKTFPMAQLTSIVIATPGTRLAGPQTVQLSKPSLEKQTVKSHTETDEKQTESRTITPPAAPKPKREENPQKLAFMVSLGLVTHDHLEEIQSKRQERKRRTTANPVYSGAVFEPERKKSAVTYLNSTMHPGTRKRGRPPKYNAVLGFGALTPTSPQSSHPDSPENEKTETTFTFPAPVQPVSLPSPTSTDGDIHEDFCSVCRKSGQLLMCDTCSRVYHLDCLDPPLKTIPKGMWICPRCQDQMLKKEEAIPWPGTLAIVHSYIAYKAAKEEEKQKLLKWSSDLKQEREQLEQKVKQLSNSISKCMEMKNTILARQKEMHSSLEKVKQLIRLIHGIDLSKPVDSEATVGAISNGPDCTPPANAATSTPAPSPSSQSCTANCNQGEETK
CHD1 tandem chromodomains, sequence (O14646 272-452): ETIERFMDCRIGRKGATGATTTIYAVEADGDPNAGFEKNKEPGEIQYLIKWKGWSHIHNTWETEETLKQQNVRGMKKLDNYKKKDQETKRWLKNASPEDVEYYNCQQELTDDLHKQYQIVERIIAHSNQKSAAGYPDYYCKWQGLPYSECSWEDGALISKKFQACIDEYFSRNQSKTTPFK
UHRF1 PHD finger, sequence (Q96T88 310-366): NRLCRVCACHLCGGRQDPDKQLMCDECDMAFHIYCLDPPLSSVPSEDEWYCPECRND
MCPH1 tandem BRCT domains, sequence (Q8NEM0 640-833): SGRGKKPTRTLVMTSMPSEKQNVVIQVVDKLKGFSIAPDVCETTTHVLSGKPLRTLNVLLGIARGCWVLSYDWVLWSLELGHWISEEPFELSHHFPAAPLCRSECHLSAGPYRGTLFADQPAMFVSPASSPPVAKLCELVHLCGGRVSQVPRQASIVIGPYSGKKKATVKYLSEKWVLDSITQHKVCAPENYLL
G9a ankyrin repeats, sequence (Q96KQ7 649-879): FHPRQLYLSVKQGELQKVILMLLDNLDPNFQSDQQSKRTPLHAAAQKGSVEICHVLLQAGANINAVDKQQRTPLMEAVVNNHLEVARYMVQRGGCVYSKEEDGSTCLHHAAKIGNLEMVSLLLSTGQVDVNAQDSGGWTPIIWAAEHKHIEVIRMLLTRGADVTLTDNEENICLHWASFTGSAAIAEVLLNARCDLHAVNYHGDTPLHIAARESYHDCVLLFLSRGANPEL
53BP1 tandem Tudor, sequence (Q12888 1484-1603): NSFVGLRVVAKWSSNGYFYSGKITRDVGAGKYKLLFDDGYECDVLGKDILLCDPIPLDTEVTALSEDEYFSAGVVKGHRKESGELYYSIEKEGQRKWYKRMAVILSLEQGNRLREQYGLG
53BP1 tandem Tudor domains, sequence (Q12888 1484-1603): as above
DPF3 tandem PHD fingers, sequence (Q92784 259-366): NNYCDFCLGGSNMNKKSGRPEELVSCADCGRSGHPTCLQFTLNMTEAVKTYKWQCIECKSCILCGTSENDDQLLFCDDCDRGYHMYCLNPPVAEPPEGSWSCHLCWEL
UHRF1 tandem Tudor-PHD cassette, sequence (Q96T88 133-366): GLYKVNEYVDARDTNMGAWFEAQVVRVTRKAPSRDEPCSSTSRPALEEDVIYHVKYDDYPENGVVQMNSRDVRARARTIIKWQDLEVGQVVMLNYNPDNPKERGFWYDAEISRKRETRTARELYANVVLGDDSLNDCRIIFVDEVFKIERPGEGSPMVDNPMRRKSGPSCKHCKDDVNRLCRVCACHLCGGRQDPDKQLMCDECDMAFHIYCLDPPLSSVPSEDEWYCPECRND
P/CAF bromodomain, sequence (Q92831 720-830): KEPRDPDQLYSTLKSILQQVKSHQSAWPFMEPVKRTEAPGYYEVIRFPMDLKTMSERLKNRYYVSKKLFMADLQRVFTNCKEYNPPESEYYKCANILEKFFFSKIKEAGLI
SND1 extended Tudor domain, sequence (Q7KZF4 650-910): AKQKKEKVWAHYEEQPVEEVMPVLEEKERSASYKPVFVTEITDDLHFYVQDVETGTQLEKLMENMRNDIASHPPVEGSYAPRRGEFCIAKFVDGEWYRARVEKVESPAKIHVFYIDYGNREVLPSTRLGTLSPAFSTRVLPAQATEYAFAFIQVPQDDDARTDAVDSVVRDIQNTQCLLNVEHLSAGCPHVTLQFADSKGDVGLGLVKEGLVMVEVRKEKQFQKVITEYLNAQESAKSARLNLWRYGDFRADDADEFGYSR
SHH1 tandem Tudor domains, sequence (Q9XI47 138-244): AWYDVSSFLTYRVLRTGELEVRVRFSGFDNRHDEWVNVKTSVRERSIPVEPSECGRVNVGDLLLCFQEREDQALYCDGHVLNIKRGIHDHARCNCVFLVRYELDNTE
SHH1 tandem Tudor, sequence (Q9XI47 138-244): as above
UHRF1 tandem Tudor domain, sequence (Q96T88 133-283): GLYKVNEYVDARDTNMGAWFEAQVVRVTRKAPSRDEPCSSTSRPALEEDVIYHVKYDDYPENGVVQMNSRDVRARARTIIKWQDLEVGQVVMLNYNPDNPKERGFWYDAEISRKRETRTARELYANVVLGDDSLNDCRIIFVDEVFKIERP

Substance: UHRF1 PHD finger (from UniProt Q96T88)
Kd [1]: 2.1 µM
Kd [2]: 1.47 µM

Substance: HP1 chromodomain (from UniProt P05205)
Kd [3]: 2.5 µM
Kd [4]: 2.5 µM

Substance: 53BP1 tandem Tudor (from UniProt Q12888)
Kd [5]: 19.7 µM

Substance: MCPH1 tandem BRCT domains (from UniProt Q8NEM0)
Kd (di-γH2A.X (Homo sapiens)): 4.4 µM
Kd (γH2A.X (Homo sapiens)): 0.7 µM

Substance: BHC80 PHD finger (from UniProt Q96BD5)
Kd (histone H3 1-10): 30 µM
Kd [7]: 30 µM

Substance: SND1 extended Tudor domain (from UniProt Q7KZF4)
Kd (PIWI (Homo sapiens)): 10 µM

Substance: 53BP1 tandem Tudor domains (from UniProt Q12888)
Kd [10]: 19.7 µM

Substance: SHH1 tandem Tudor (from UniProt Q9XI47)
Kd [15]: 1.9 µM

Substance: UHRF1 tandem Tudor-PHD cassette (from UniProt Q96T88)
Kd [16]: 0.37 µM

Substance: DPF3 tandem PHD fingers (from UniProt Q92784)
Kd [17]: 0.5 µM

Substance: 14-3-3ζ (from UniProt P63104)
Kd [18]: 23 µM
Kd [19]: 78 µM

Substance: P/CAF bromodomain (from UniProt Q92831)
Kd [21]: 346 µM

Substance: SHH1 tandem Tudor domains (from UniProt Q9XI47)
Kd [24]: 1.9 µM

Other lines, results leading:

Kd [6]: 0.5 µM
Substance: ATRX ADD (from UniProt P46100)

Kd [8]: 6 µM
Kd [9]: 6 µM
Substance: G9a ankyrin repeats (from UniProt Q96KQ7)

Kd [11]: 2.7 µM
Kd [12]: 5 µM
Substance: BPTF PHD finger (from UniProt Q12830)

Kd [13]: 5 µM
Kd [14]: 5 µM
Substance: CHD1 tandem chromodomains (from UniProt O14646)

Kd [20]: 1.75 µM
Substance: UHRF1 tandem Tudor domain (from UniProt Q96T88)

Kd [22]: 0.5 µM
Kd [23]: 0.4 µM
Substance: JMJD2A tandem Tudor (from UniProt O75164)
